# Test results as given in publication PMC5131902, “Pheromone Recognition and Selectivity by ComR Proteins among Streptococcus Species” (PLoS Pathogens, 2016).
# Read-outs that look alike come from different tables or passages of the source. Ends that are not written are not given here.
# Key:
# [1] = tested on: S. agalactiae 2603 v/r ComR; test: S. mutans ES1 test-bed PcomS::luxAB luciferase reporter assay; format: cell-based; conditions: synthetic peptides titrated to ES1 reporter strain carrying ComR S. agalactiae 2603
# Excerpt: (§1) The entire known SigX regulon, as well as the proximal transcriptional regulator of sigX, ComR, is conserved throughout the Mutans, Bovis, and Pyogenic groups (Fig 1, top). Additionally, within these groups, the mature form of the peptide pheromone ComS contains a conserved double-tryptophan motif (‘WW’) (Fig 1, bottom). This led us to ask whether the putative ComRs encoded by members of these groups could respond to cognate and heterologous XIPs to activate comS and sigX transcription. To test this possibility, we developed a strain that would allow for control of the ComR and XIP variants present within the system. […] Additionally, when a multi-copy plasmid carrying wild-type comR was provided to a ΔcomR strain, the ability to naturally transform exogenous genomic DNA was rescued. With these observations in mind, we created an S. mutans UA159 ‘test bed’ strain, ES1, in which the endogenous comRS locus was replaced with a spectinomycin-resistance cassette (Fig 2A). Because this strain contains neither comS nor comR, it is unable to produce or respond to XIP pheromones. A plasmid was used as a vehicle to provide different comR variants, under control of the native promoter, with adjoining comR-comS intergenic regions containing ComR binding sites and the comS promoter. The plasmid also contains the bacterial luciferase genes, luxAB, under transcriptional control of the cloned comS promoter. Clones harboring each comR-variant plasmid were constructed, grown, and treated with titrations of synthetic XIP peptides. Since productive interaction between ComR and XIP results in transcriptional activation of the comS promoter, we could test the functionality of ComR–XIP interactions by assessing the specific bioluminescent activity of each culture. To ensure that the test bed recapitulated observed results seen in wild-type S. mutans UA159, we assessed the UA159 ComR with serial dilutions of the cognate XIP-C7 (the C-terminal seven amino acids of ComS) and measured bioluminescence levels (Fig 2B).
# (§2) Predicted XIP peptide sequences were determined by identifying open reading frames downstream from the putative ComR gene by using NCBI BLAST to identify UA159 ComR homologues. One to three different lengths of peptide from each species were ordered from NeoScientific (Woburn, MA). Peptide crude extracts (purity 45–75%) were dissolved in DMSO (Fisher Scientific, Hampton, NH) at a concentration of 1 mM based upon the specific purity and stored at -20° C.
# (§3) Starter cultures, from cultures stored in 20% glycerol at -80° C, of each ComR reporter strain were diluted to an OD600 of 0.05 in CDM + erm and incubated at 37° C until an OD^600 of ~0.1. 190 uL aliquots of reporter strain cell culture were added to wells within a 96-well (Greiner Bio-One; Monroe, NC) lidded, clear, flat-bottom plate, each containing 10 μL of DMSO or a 5x-serial dilution of the peptide of interest in DMSO (final concentration of 5% DMSO/well). Concentrations tested for each peptide were 1.3 nM, 6.4 nM, 38.6 nM, 231.5 nM, 1388.9 nM, […], and 50 μM. […] Prepared plates were lidded and sealed with Parafilm (Bemis, Oshkosh, WI) before incubation at 37° C, with continuous shaking, in a Synergy 2 plate reader (Biotek). OD600 and luminescence readings were measured every 15 min. over a 4-hr period. The maximum RLU measurement per well, between 60–240 minutes was recorded using Gen5 data analysis software. […]
# S. mutans UA159 ComR = S. mutans UA159 ComR (Streptococcus mutans serotype c, UniProt Q8DWI6); test: as above; format: cell-based
# Excerpt: as §1, §2, §3
# S. suis S10 (serotype 2) = conditions: cited from earlier work
# Excerpt: One observed difference from published ComR/XIP behavior was for the two S. pyogenes strains used in our study, MGAS5005 (serotype M1) and MGAS315 (serotype M3).
# [2] = target: ComR S. bovis 83 (Streptococcus bovis Sbo 83)
# [3] = target: ComR S. bovis SboB (Streptococcus bovis SboB)
# [4] = target: ComR S. dysgalactiae subsp. equisimilis ATCC35666 (Streptococcus dysgalactiae subsp. equisimilis ATCC35666)
# [5] = target: ComR S. pyogenes MGAS5005 (Streptococcus pyogenes MGAS5005)
# [6] = target: ComR S. suis N220A (Streptococcus suis 05ZYH33); test: ITC; 300 μM XIP injected into 20 μM ComR; VP-ITC, 25°C; 20 mM Tris pH 7.5, 100 mM NaCl, 1 mM β-ME; one-site model
# [7] = target: ComR S. suis 05ZYH33 (residues 1–304), wild-type (Streptococcus suis 05ZYH33); test: as above
# [8] = target: ComR S. suis 05ZYH33 (residues 1–304), wild-type (Streptococcus suis 05ZYH33)
# [9] = target: ComR S. mutans UA159 (Streptococcus mutans UA159)
# [10] = target: ComR S. mutans UA159 (Streptococcus mutans UA159); remark: listed apart in the source
molecule,measurement,setting,value
"ETEWWNVG [EBS3, designed XIP of eight residues for ComR S. agalactiae 2603, ETEWWNVG]","reporter induction of ComR S. agalactiae 2603 (maximum relative luciferase activity), in words",[1],did not elicit strong reporter activity
GLDWWSL [UA159 C7],EC50,S. mutans UA159 ComR,0.17 nM
GNWGTWVEE [XIP-C9],transformability upon addition of XIP length variant,S. suis S10 (serotype 2),highest transformability
"LDWWSLG [EBS1, designed XIP agonist of ComR S. agalactiae 2603, LDWWSLG]","reporter induction of ComR S. agalactiae 2603 (maximum relative luciferase activity), in words",[1],robust reporter induction
S. bovis 83 XIP-C7 (peptide),EC50 of P comS::luxAB luciferase activity in the S. mutans ES1 test bed,[2],< 1 nM
S. bovis SboB XIP-C7 (peptide),EC50 of P comS::luxAB luciferase activity in the S. mutans ES1 test bed,[3],< 1 nM
S. dysgalactiae subsp. equisimilis ATCC35666 XIP-C7 (peptide),EC50 of P comS::luxAB luciferase activity in the S. mutans ES1 test bed,[4],15000 nM
same,increase in reporter activity at 50 μM XIP,[4],10 fold
S. pyogenes MGAS315 XIP-C8 (peptide),"P comS::luxAB transcription at 50 μM XIP, relative to the maximum with the cognate XIP",[5],25%
S. pyogenes MGAS5005 XIP-C8 (peptide),EC50 of P comS::luxAB transcription in the S. mutans ES1 test bed,[5],250 nM
same,increase of P comS::luxAB transcription at 50 μM XIP,[5],25 fold
S. suis 05ZYH33 XIP-C7 (peptide),Kd,[6],13700 nM
same,dH,[6],-7.28 kcal/mol
same,stoichiometry N,[6],1.09
same,Kd,[7],862 nM
same,dH,[7],-13.6 kcal/mol
same,stoichiometry N,[7],0.96
same,EC50 of P comS::luxAB luciferase activity in the S. mutans ES1 test bed,[8],93 nM
"TGWWMLG [EBS2, designed XIP agonist of ComR S. agalactiae 2603, TGWWMLG]","reporter induction of ComR S. agalactiae 2603 (maximum relative luciferase activity), in words",[1],robust reporter induction
"TMGWWGL [NEM316 XIP, putative Type-II XIP of S. agalactiae strain NEM316, TMGWWGL]","reporter induction of ComR S. agalactiae 2603 (maximum relative luciferase activity), in words",[1],unable to activate
GLDWWSL [S. mutans UA159 XIP-C7],Kd,[6],6060 nM
same,dH,[6],-4.26 kcal/mol
same,stoichiometry N,[6],0.95
same,Kd,[7],5880 nM
same,dH,[7],-6.01 kcal/mol
same,stoichiometry N,[7],1.03
same,EC50 of P comS::luxAB luciferase activity in the S. mutans ES1 test bed,[9],88 nM
same,EC50 of P comS::luxAB luciferase activity in the S. mutans ES1 test bed,[10],0.2 nM
same,"maximal induction of luciferase activity in the test bed, at 2 nM XIP",[10],140 fold
